Data set [1] concerns the target NELF-A (6-188);NELF-C (183-590) (Homo sapiens;Homo sapiens, UniProt Q9H3P2;Q8IXH7 6-188;183-590, |). Description: fluorescence anisotropy; NELF-AC: 30 mM NaCl, 3 mM MgCl2, 10 mM Na-HEPES pH 7.4, 2 mM DTT, 50 ug/ml BSA; other NELF complexes: same with 60 mM NaCl and 5 ug/ml yeast tRNA; 10 nM nucleic acid, incubated at RT, read at 30 C. To be noted: protein: recombinant;recombinant, tags: N-His6 removed by thrombin;none, copies: 1;1.

Data set [2] addresses NELF-A full-length;NELF-B;NELF-D (called NELF-C) (Homo sapiens;Homo sapiens;Homo sapiens, UniProt Q9H3P2;Q8WX92;Q8IXH7-4 1-528;49-628;1-581, ||). The data set is described as follows: fluorescence anisotropy; yeast tRNA 5 ug/ml; NELF-AC: 30 mM NaCl, 3 mM MgCl2, 10 mM Na-HEPES pH 7.4, 2 mM DTT, 50 ug/ml BSA; other NELF complexes: same with 60 mM NaCl and 5 ug/ml yeast tRNA; 10 nM nucleic acid, incubated at RT, read at 30 C. The conditions noted are these: protein: recombinant;recombinant;recombinant, tags: none stated;N-His6-TEV in NELF-B and NELF-BE constructs (cleaved);N-His6-TEV, cleaved, copies: 1;1;1, label: 5'-FAM.

Another data set addresses NELF-B (Homo sapiens, UniProt Q8WX92 49-628). The description is as above. To be noted: protein: recombinant; tags: N-His6-TEV in NELF-B and NELF-BE constructs (cleaved); label: 5'-FAM; single strand.
Data set [3] addresses NELF-A full-length;NELF-B;NELF-D (called NELF-C);NELF-E (1-138) (Homo sapiens;Homo sapiens;Homo …, UniProt Q9H3P2;Q8WX92;Q8IXH7-4;P18615 1-528;49-628;1-581;1-138, |||). Described as above. To be noted: protein: recombinant;recombinant;recombinant;recombinant, copies: 1;1;1;1, label: 5'-FAM.
In data set [4] the target is T1, NELF-A full-length;NELF-B;NELF-D patch mutant (called NELF-C) (Homo sapiens;Homo sapiens;Homo sapiens, UniProt Q9H3P2;Q8WX92;Q8IXH7-4 1-528;49-628;1-581, ||R282Q;K306M;K362M;K363M;K365M;K375M;K379M;R410Q;R497Q). The description is as above. The conditions noted are these: protein: recombinant;recombinant;recombinant; tags: none stated;N-His6-TEV in NELF-B and NELF-BE constructs (cleaved);N-His6-TEV, cleaved; copies: 1;1;1; label: 5'-FAM; single strand.

Data set [5] addresses NELF-A full-length;NELF-B;NELF-D patch mutant (called NELF-C);NELF-E (1-138) (Homo sapiens;Homo sapiens;Homo …, UniProt Q9H3P2;Q8WX92;Q8IXH7-4;P18615 1-528;49-628;1-581;1-138, ||R282Q;K306M;K362M;K363M;K365M;K375M;K379M;R410Q;R497Q|). The data set is described as above. To be noted: protein: recombinant;recombinant;recombinant;recombinant; copies: 1;1;1;1; label: 5'-FAM; single strand.

The next data set deals with NELF-B;NELF-E (1-138) (Homo sapiens;Homo sapiens, UniProt Q8WX92;P18615 49-628;1-138, |). The data set is described as above. To be noted: protein: recombinant;recombinant, tags: N-His6-TEV in NELF-B and NELF-BE constructs (cleaved);none stated, copies: 1;1, label: 5'-FAM.
Chain of NELF-B;NELF-E (1-138) (Q8WX92 whole entry, chain 1 of 2): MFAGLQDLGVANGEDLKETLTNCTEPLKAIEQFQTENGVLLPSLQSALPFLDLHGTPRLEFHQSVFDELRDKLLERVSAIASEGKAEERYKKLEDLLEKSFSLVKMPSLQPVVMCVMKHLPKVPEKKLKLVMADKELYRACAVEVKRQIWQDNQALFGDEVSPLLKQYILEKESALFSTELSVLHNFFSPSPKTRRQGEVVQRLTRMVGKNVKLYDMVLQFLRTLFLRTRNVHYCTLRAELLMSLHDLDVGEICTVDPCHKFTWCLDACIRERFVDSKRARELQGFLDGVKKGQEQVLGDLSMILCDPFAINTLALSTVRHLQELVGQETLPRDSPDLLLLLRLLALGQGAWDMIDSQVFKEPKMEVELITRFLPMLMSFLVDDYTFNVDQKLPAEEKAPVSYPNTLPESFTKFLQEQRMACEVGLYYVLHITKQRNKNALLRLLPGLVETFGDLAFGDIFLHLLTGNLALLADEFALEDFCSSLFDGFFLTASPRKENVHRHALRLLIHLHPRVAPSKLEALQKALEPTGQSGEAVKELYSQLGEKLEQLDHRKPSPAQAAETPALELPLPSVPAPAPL
Chain of NELF-B;NELF-E (1-138) (P18615 1-138, chain 2 of 2): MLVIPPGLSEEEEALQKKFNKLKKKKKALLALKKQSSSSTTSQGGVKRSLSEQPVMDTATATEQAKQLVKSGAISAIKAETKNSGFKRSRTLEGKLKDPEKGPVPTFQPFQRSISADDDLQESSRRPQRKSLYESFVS
The target of data set [6] is T2, NELF-A (6-188) patches 1,4;NELF-C (183-590) patches 1,2,4 (Homo sapiens;Homo sapiens, UniProt Q9H3P2;Q8IXH7 6-188;183-590, R65Q;R66Q;K146M;K161M;K168M;R175Q|R291Q;K315M;K371M;K372M;K374M;R419Q;R506Q). The data set is described as follows: fluorescence anisotropy; text says impaired; Bmax printed 12.92; NELF-AC: 30 mM NaCl, 3 mM MgCl2, 10 mM Na-HEPES pH 7.4, 2 mM DTT, 50 ug/ml BSA; other NELF complexes: same with 60 mM NaCl and 5 ug/ml yeast tRNA; 10 nM nucleic acid, incubated at RT, read at 30 C. To be noted: protein: recombinant;recombinant; tags: N-His6 removed by thrombin;none; copies: 1;1; label: 5'-FAM; single strand.

Data set [7] deals with NELF-A full-length;NELF-B;NELF-D (called NELF-C);NELF-E full-length (Homo sapiens;Homo sapiens;Homo …, UniProt Q9H3P2;Q8WX92;Q8IXH7-4;P18615 1-528;49-628;1-581;1-380, |||). The data set is described as follows: fluorescence anisotropy; yeast tRNA 5 ug/ml; NELF-AC: 30 mM NaCl, 3 mM MgCl2, 10 mM Na-HEPES pH 7.4, 2 mM DTT, 50 ug/ml BSA; other NELF complexes: same with 60 mM NaCl and 5 ug/ml yeast tRNA; 10 nM nucleic acid, incubated at RT, read at 30 C. To be noted: protein: recombinant;recombinant;recombinant;recombinant; copies: 1;1;1;1; label: 5'-FAM; hairpin.

The target in data set [8] is T2, NELF-A (6-188) patches 1,4;NELF-C …. Description: fluorescence anisotropy; NELF-AC: 30 mM NaCl, 3 mM MgCl2, 10 mM Na-HEPES pH 7.4, 2 mM DTT, 50 ug/ml BSA; other NELF complexes: same with 60 mM NaCl and 5 ug/ml yeast tRNA; 10 nM nucleic acid, incubated at RT, read at 30 C. The conditions noted are these: protein: recombinant;recombinant; tags: N-His6 removed by thrombin;none; copies: 1;1; label: 5'-FAM; single strand.

Data set [9] deals with NELF-A (6-188) patches 1,4;NELF-C (183-590) patches 1,2,3,4 (Homo sapiens;Homo sapiens, UniProt Q9H3P2;Q8IXH7 6-188;183-590, R65Q;R66Q;K146M;K161M;K168M;R175Q|R291Q;K315M;K371M;K372M;K374M;K384M;K388M;R419 …). The description is as above. The conditions noted are these: protein: recombinant;recombinant; tags: N-His6 removed by thrombin;none; copies: 1;1; label: 5'-FAM; single strand.

Data set [10] has as its target T1, NELF-A full-length;NELF-B;NELF-D patch …. Description: fluorescence anisotropy; yeast tRNA 5 ug/ml; error as printed; NELF-AC: 30 mM NaCl, 3 mM MgCl2, 10 mM Na-HEPES pH 7.4, 2 mM DTT, 50 ug/ml BSA; other NELF complexes: same with 60 mM NaCl and 5 ug/ml yeast tRNA; 10 nM nucleic acid, incubated at RT, read at 30 C. The conditions noted are these: protein: recombinant;recombinant;recombinant, tags: none stated;N-His6-TEV in NELF-B and NELF-BE constructs (cleaved);N-His6-TEV, copies: 1;1;1, label: 5'-FAM, single strand.

The record followed here is paper PMC4940160, “Architecture and RNA binding of the human negative elongation factor”.

Chain of NELF-A (6-188);NELF-C (183-590) (Q9H3P2 6-188, chain 1 of 2): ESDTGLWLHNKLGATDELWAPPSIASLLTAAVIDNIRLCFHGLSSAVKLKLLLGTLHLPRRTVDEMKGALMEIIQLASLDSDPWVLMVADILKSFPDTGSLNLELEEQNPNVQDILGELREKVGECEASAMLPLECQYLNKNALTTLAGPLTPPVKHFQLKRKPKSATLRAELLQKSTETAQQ
Chain of NELF-A (6-188);NELF-C (183-590) (Q8IXH7 183-590, chain 2 of 2): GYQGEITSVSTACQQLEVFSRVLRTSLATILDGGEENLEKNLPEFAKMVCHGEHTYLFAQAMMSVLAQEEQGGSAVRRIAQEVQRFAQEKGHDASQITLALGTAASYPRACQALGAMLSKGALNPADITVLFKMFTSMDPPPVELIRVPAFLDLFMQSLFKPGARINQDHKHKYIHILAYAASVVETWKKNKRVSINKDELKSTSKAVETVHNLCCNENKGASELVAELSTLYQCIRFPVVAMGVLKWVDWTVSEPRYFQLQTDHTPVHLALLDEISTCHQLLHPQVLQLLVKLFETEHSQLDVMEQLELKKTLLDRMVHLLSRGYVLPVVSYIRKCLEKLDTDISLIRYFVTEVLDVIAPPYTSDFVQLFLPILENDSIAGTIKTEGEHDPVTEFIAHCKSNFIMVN
Chain of NELF-A full-length;NELF-B;NELF-D (called NELF-C) (Q9H3P2 whole entry, chain 1 of 3): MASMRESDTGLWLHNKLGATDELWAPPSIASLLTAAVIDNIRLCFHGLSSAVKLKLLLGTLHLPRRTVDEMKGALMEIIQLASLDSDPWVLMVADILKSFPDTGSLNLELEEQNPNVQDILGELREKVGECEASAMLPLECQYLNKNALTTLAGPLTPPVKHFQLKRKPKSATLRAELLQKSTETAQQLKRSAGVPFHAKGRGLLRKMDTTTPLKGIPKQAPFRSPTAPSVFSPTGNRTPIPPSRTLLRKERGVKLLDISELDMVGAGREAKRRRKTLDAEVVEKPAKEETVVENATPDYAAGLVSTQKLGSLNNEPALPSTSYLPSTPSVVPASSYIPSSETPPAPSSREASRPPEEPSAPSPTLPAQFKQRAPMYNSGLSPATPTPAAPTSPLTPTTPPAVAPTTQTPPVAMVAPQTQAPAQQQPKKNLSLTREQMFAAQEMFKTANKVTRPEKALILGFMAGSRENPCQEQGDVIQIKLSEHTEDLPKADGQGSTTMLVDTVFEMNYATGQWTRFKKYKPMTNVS
Chain of NELF-A full-length;NELF-B;NELF-D (called NELF-C) (Q8WX92 whole entry, chain 2 of 3): as the sequence (Q8WX92 whole entry, chain 1 of 2) above
Chain of NELF-A full-length;NELF-B;NELF-D (called NELF-C) (Q8IXH7 10-590, chain 3 of 3): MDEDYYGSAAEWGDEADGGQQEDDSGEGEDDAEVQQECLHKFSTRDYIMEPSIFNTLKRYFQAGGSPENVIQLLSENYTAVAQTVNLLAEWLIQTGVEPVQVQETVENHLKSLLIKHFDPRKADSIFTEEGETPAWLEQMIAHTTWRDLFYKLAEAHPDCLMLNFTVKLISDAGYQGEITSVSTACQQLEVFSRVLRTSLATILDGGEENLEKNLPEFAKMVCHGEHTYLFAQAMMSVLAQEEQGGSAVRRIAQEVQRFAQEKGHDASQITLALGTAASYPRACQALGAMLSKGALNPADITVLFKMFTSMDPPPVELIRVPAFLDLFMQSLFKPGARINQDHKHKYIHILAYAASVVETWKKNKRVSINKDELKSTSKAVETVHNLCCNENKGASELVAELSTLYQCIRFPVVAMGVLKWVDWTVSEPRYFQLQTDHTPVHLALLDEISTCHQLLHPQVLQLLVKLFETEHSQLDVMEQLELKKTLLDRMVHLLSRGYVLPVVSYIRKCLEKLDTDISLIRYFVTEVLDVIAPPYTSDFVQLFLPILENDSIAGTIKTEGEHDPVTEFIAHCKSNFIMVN
Chain of NELF-A full-length;NELF-B;NELF-D (called NELF-C);NELF-E (1-138) (Q9H3P2 whole entry, chain 1 of 4): as the sequence (Q9H3P2 whole entry, chain 1 of 3) above
Chain of NELF-A full-length;NELF-B;NELF-D (called NELF-C);NELF-E (1-138) (Q8WX92 whole entry, chain 2 of 4): as the sequence (Q8WX92 whole entry, chain 1 of 2) above
Chain of NELF-A full-length;NELF-B;NELF-D (called NELF-C);NELF-E (1-138) (Q8IXH7 10-590, chain 3 of 4): as the sequence (Q8IXH7 10-590, chain 3 of 3) above
Chain of NELF-A full-length;NELF-B;NELF-D (called NELF-C);NELF-E (1-138) (P18615 1-138, chain 4 of 4): as the sequence (P18615 1-138, chain 2 of 2) above

On to AAGACTGAGCCGGCGGCCGC (ssDNA) [c-fos ssDNA], for which the binding result in data set [1] (label: 5'-FAM, single strand) was “binds”.
Regarding AGCGGCCAGGCCAGCCUCGGAGCCA (ssRNA) [junB ssRNA], the Kd in data set [1] (label: 5'-FAM, single strand) is ~8000 nM.
AAGGGGAGCGGGGGAGGATAATAGG (ssDNA) [60% GC ssDNA]: the Kd in data set [1] (label: 5'-FAM, single strand) stood at 17500 ± 1330 nM; in [2] (single strand), 100 ± 30 nM; in the data set with NELF-B, 6310 ± 1920 nM; in data set [3] (single strand), 30 ± 10 nM; in data set [4], 770 ± 20 nM; in [5], 300 ± 80 nM. Further, the Kd in the data set with NELF-B;NELF-E (1-138) (single strand) was 17400 ± 3500 nM; in data set [6], 12900 ± 2280 nM.
Consider CCAGAUCUGAGCCUGGGAGCUCUCUGG (structured_RNA) [HIV-1 TAR RNA stem loop], for which the Kd in data set [2] (hairpin) amounted to 1320 ± 180 nM; in data set [7] it was 146 ± 30 nM; in [3] (hairpin), 869 ± 140 nM; with NELF-B;NELF-E (1-138) (hairpin), 5590 ± 1050 nM.
As for AAGGGGAGCGGGGGAGGAUAAUAGG (ssRNA) [60% GC ssRNA], the Kd in [1] (label: 5'-FAM, single strand) worked out at 6870 ± 460 nM; in data set [8], 14300 ± 2410 nM; in data set [9], 14300 ± 2670 nM; in data set [10] it was 290 nM; in data set [2] (single strand), 74 ± 14 nM; with NELF-B, 8500 ± 1590 nM. Besides, the figures for the Kd (in [3] (single strand); in [5]; in the data set with NELF-B;NELF-E (1-138) (single strand)) were 30 ± 7 nM, 94 ± 20 nM and 2830 ± 1000 nM, respectively.
In the case of ACCCCACAACUAAAAAAUCCCAACC (ssRNA) [44% GC ssRNA], the binding result in data set [1] (label: 5'-FAM, single strand) is given as “no binding”.

B1: 60% GC DNA-RNA hybrid (DNA:RNA)
DNA: AAGGGGAGCGGGGGAGGATAATAGG
RNA: CCUAUUAUCCUCCCCCGCUCCCCUU
Regarding B1, the binding result in data set [1] is reported as “no binding”.

B2: 60% GC dsDNA (dsDNA)
DNA 1: AAGGGGAGCGGGGGAGGATAATAGG
DNA 2: CCTATTATCCTCCCCCGCTCCCCTT
With B2, the binding result in [1] (label: 5'-FAM) is reported as “no binding”.
